Patent publication US8748572B2, “RNase a peptides, fragments and uses thereof” (priority 2006, dated 2014)

Columns and labels:
E. coli DH5α = assay: bactericidal colony-forming assay, E. coli; format: cell-based, Escherichia coli
Experimental: (§1) FIGS. 5 A & B are graphs showing the bactericidal activity of rRNases A-1 and A-2. In panel (A) E. coli DH5α and in panel (B) S. aureus 502A were re-suspended in 100 mM sodium phosphate buffer, pH 7.4, and incubated with the indicated concentrations of chicken leukocyte RNase A-1 (open squares) and A-2 (closed circles) for 4 h at 37° C., plated on RNase-free LB agar, and grown overnight for colony counts.
RNase A polypeptides and fragments according to the invention that have bactericidal activity are particularly preferred for use in the treatment methods of the invention. The bactericidal and bacteriostatic activity of a particular RNase A polypeptides or fragments can be assessed by known protocols, such as that described in the methods section and the following described protocol, herein referred to as “a standard bacterial colony formation assay.” Bactericidal assays are well-described in the art, and are performed as described previously, and as exemplified in Examples 3-6. Briefly, an aliquot from a single bacterial colony overnight culture grown in Luria-Beitani (LB) broth is diluted 1:100 in sodium phosphate, pH 7.4, collected by centrifugation, and resuspended in sodium phosphate, pH 7.4. An aliquot of bacteria in buffer are incubated for 4 hr at 37° C. with recombinant protein or peptide at concentrations indicated, or diluent control and were then diluted 10, 100, or 1000-fold prior to plating on LB agar for overnight growth for colony counts.
Next, the bactericidal activity of chicken leukocyte RNases were examined using a colony-forming assay as previously described for eosinophil cationic protein [28]. […] E. coli was more susceptible to the bactericidal activity of leukocyte rRNase A-2 than was S. aureus, as 5 μM rRNase A-2 reduced the colony count of E. coli 10^7-fold, while reducing the colony count of S. aureus, only 100-fold. Recombinant RNase A-1 had no effect on colony number of E. coli or S. aureus concentrations up to and including […].
Bactericidal assays were performed as described previously with modifications. Briefly, 100 microliters from a single bacterial colony overnight culture grown in Luria-Bertani (LB) broth was diluted 1:100 in 100 mM sodium phosphate, pH 7.4, collected by centrifugation, and resuspended in 1 ml sodium phosphate, pH 7.4. Ten microliters of bacteria in buffer are incubated for 4 hr at 37° C. with 10 microliters recombinant protein or peptide at concentrations indicated, or diluent control and were then diluted 10, 100, or 1000-fold prior to plating on LB agar for overnight growth for colony counts. All points were determined in triplicate.

isoelectric point = format: physicochemical
[1] = tested on: poly U, poly C, poly A, poly G, poly I, double-stranded RNA; assay: ribonuclease assay, substrate preference (polyribonucleotides); format: biochemical; details: 50 pmol rRNase, pH 7.0; for hydrolysis of poly U: 250 μg/ml poly U
Experimental: FIGS. 4 A-D are graphs showing the ribonucleolytic activity of recombinant leukocyte RNases. (A) is a graph showing the optimum pH for RNase activity. Enzymatic activity was determined with 50 pmol rRNase A-1 (open squares) and rRNase A-2 (closed circles) that was incubated with 250 μg/ml yeast tRNA in 40 mM sodium phosphate buffer at the pHs indicated. Measurements of A260 per time were converted to pmol/s as described in […] and Methods. (B) is a graph showing the initial rates for RNase activity. Enzymatic activity was determined as described in (A) with 40 mM sodium phosphate buffer, pH 7.0. (C) is a graph showing the substrate preference for RNase activity. 50 pmol rRNase A-1 (left panel) and rRNase A-2 (right panel) proteins were incubated with 250 μg/ml of poly U (open squares), poly C (closed circles), poly A (open diamonds), poly G (open triangles) and poly I (open circles) in 40 mM sodium phosphate buffers, pH 7.0. A260 was measured after precipitation of undigested RNA at each of the time points indicated. (D) is two panels of graphs showing interaction of RNase with human placental RNase inhibitor (hPR1). RNase activity was measured with […] of bovine pancreatic RNase (left) or […] rRNase A-1 and rRNase A-2 (right) with 250 μg/ml of yeast tRNA as substrate with (+) or without (−) 200 U human placental RNase inhibitor (hPR1) in 40 mM sodium phosphate buffer, pH 7.0. The hPR1 was added to the RNases in buffer 5 min prior to initiation of RNase assay by addition of substrate. *p<0.01.
The ribonuclease (RNase) assay with yeast tRNA substrate has been described in detail elsewhere. In this study, 10 μL of a 20 mg/ml solution of yeast tRNA, polyuridylic acid (poly U), polyadenylic acid (poly A), polycytidylic acid (poly C), polyguanylic acid (poly G), or polyinosinic acid (poly I) (Sigma-Aldrich) were added to 800 μl of 40 mM sodium phosphate buffer, pH 7.0 containing recombinant FLAG-tagged chicken RNase protein. In experiments in which the pH optimum was to be determined, 40 mM sodium phosphate buffers of pH 5.0, 5.5, 6.0, 6.5, […] or 8.0 were used instead of the buffer of pH 7.0. In some experiments, 200 U human placental RNase inhibitor (Boehringer Mannheim) were added prior to the addition of the tRNA substrate. Conversion of units A260 per unit time to pmol/s were performed as described in [29], based on the following conversion factors: the average molecular weight of a molecule of tRNA is 28,100 (75-90 ribonucleotides/tRNA molecule×341 MW per ribonucleotide) with an A260 of 1.0 corresponding to 40 μg of RNA.

S. aureus 502A = assay: bactericidal colony-forming assay, S. aureus; format: cell-based, Staphylococcus aureus
Experimental: as §1
RNase A polypeptides and fragments according to the invention that have bactericidal activity are particularly preferred for use in the treatment methods of the invention. The bactericidal and bacteriostatic activity of a particular RNase A polypeptides or fragments can be assessed by known protocols, such as that described in the methods section and the following described protocol, herein referred to as “a standard bacterial colony formation assay.” Bactericidal assays are well-described in the art, and are performed as described previously, and as exemplified in Examples 3-6. Briefly, an aliquot from a single bacterial colony overnight culture grown in Luria-Beitani (LB) broth is diluted 1:100 in sodium phosphate, pH 7.4, collected by centrifugation, and resuspended in sodium phosphate, pH 7.4. […]
Bactericidal assays were performed as described previously with modifications. […] All points were determined in triplicate.

B1: rRNase A-2: recombinant carboxy-terminal FLAG-tagged Gallus gallus leukocyte RNase A-2, SEQ ID NO: 4, GenBank DQ395276 (protein, listed as Gallus gallus)
chain: VPTYQDFLYKHMDFPKTSFPSNAAYCNVMMVRRGMTAHGRCKSFNTFVHTDPRNLNTLCINQPDQALRTTRRHFRITDCKLIRSHPTCRYSGNQFNRRVRVGCRGGLPVHLDGTSP
modifications: C-terminal FLAG tag
With B1 the “reduction of colony count of E. coli” value (E. coli DH5α; 5 μM, 4 h at 37° C.) was 10^7 fold, the “colony count of E. coli after incubation” value (E. coli DH5α; 5 μM, 4 hrs) was < 100 CFU/ml and the “isoelectric point (pI)” value (isoelectric point) was 11.0. For the same molecule, the “hydrolysis of poly U” value [1] was “hydrolyzed poly U RNA, at initial rates that were roughly equivalent to one another”, the “cleavage of poly C and poly A” value ([1]; 250 μg/ml substrate) was “cleaved poly C and poly A, although at initial rates that were lower than those observed for poly U” and the “reduction of colony count of S. aureus” value (S. aureus 502A; 5 μM, 4 h at 37° C.) was 100 fold.

B2: rRNase A-1: recombinant carboxy-terminal FLAG-tagged Gallus gallus leukocyte RNase A-1, SEQ ID NO: 2, GenBank DQ395275 (protein, listed as Gallus gallus)
chain: VPTYQDFLRTHVDFPKTSFPNIAAYCNVMMVRRGINVHGRCKSLNTFVHTDPRNLNTLCINQPNRALRTTQQQLPVTDCKLIRSHPTCSYTGNQFNHRVRVGCWGGLPVHLDGTFP
modifications: C-terminal FLAG tag
With B2 the “bactericidal activity against E. coli (in words), recombinant proteins” value (E. coli DH5α; 5 μM, 4 hrs) was “no impact on colony count”, the “effect on colony number of E. coli” value (E. coli DH5α; concentrations up to and including 5 μl %/1) was “no effect” and the “isoelectric point (pI)” value (isoelectric point) was 10.2. For the same molecule, the “hydrolysis of poly U” value [1] was “hydrolyzed poly U RNA, at initial rates that were roughly equivalent to one another”, the “polyribonucleotides other than poly U as substrates” value ([1]; 250 μg/ml substrate) was “poor substrates” and the “effect on colony number of S. aureus” value (S. aureus 502A; concentrations up to and including 5) was “no effect”.
